Assay results: the supplement of paper PMC7125110
± gives the standard error. For part of these data: This sample holds only a part of the variants without activity.

B1: glmS ribozyme (parent)
chain: AUAAAAGCGCCAGAACUACAGAAAUGUAGUUGACGAGGAGGAGGUUUAUCGAAUUUUCGGCGGAUGCCUCCAAA

Key:
Conditions in all cases: with glucosamine-6-phosphate
glucosamine-6-phosphate [1] = variants of: B1; experiment: kcat; higher = faster cleavage; RNA array
In short: (§1)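 Glucosamine-6-phosphate in HEPES/KCl/Mg(OAc)2 buffer, at 40 μM to 10 mM, was flowed over barcoded ribozyme variants transcribed in situ by E. coli RNA polymerase on sequenced MiSeq chips. Tracking was through a hybridised Cy3 probe at 37 °C. kobs, kcat and KM came from exponential decay fits and weighted Michaelis–Menten fits of normalised per-tile medians.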

glucosamine-6-phosphate [2] = variants of: B1; experiment: self-cleavage kobs at 640 uM GlcN6P; higher = faster cleavage; RNA array
In short: as §1

glucosamine-6-phosphate [3] = variants of: B1; experiment: KM; higher = weaker cofactor use; RNA array
In short: as §1

glucosamine-6-phosphate [4] = variants of: B1; experiment: self-cleavage kobs at 2500 uM GlcN6P; higher = faster cleavage; RNA array
In short: as §1

glucosamine-6-phosphate [5] = variants of: B1; experiment: self-cleavage kobs at 10000 uM GlcN6P; higher = faster cleavage; RNA array
In short: as §1

glucosamine-6-phosphate [6] = variants of: B1; experiment: self-cleavage kobs at 40 uM GlcN6P; higher = faster cleavage; RNA array
In short: as §1

glucosamine-6-phosphate [7] = variants of: B1; experiment: self-cleavage kobs at 160 uM GlcN6P; higher = faster cleavage; RNA array
In short: as §1

| Variant | kcat (glucosamine-6-phosphate [1]) [s⁻¹] | self-cleavage kobs at 640 uM GlcN6P (glucosamine-6-phosphate [2]) [s⁻¹] | KM (glucosamine-6-phosphate [3]) [µM] | self-cleavage kobs at 2500 uM GlcN6P (glucosamine-6-phosphate [4]) [s⁻¹] | self-cleavage kobs at 10000 uM GlcN6P (glucosamine-6-phosphate [5]) [s⁻¹] | self-cleavage kobs at 40 uM GlcN6P (glucosamine-6-phosphate [6]) [s⁻¹] | self-cleavage kobs at 160 uM GlcN6P (glucosamine-6-phosphate [7]) [s⁻¹] |
| --- | --- | --- | --- | --- | --- | --- | --- |
| U54G G59C | < 1e-05 | < 1e-05 |  |  |  |  |  |
| U56C C67A | 4.27e-05 ± 1.5e-06 |  | 701 ± 180 | 3.57e-05 ± 1.4e-05 | 3.95e-05 ± 7.5e-06 |  |  |
| U56C C67U | 3.78e-05 ± 8.1e-07 |  | 7870 ± 360 |  |  | < 1e-05 | < 1e-05 |
| A53U A64G | 0.0234 ± 0.0024 | 0.00551 ± 0.0013 | 1970 ± 260 | 0.0138 ± 0.0041 | 0.0195 ± 0.0038 | 0.000491 ± 6.1e-05 | 0.00148 ± 0.00041 |
| C58U G59U | < 1e-05 | < 1e-05 |  |  | < 1e-05 | < 1e-05 |  |
| U54C A64G | 0.016 ± 0.0067 | 0.00883 ± 0.0018 |  | 0.0287 ± 0.0082 | 0.0123 ± 0.0031 | 0.000616 ± 8.4e-05 | 0.00156 ± 0.00033 |
| U57C C70G | 1.91e-05 ± 3.1e-06 |  |  |  |  |  |  |
| U57C C70A | 1.97e-05 ± 8.4e-06 |  |  |  |  |  |  |
| U55C C71A | 0.000398 ± 3.4e-05 | 5.32e-05 ± 6.9e-06 | 3820 ± 600 | 0.000174 ± 1.9e-05 | 0.000283 ± 2.2e-05 |  |  |
| C58U C67G | 3.65e-05 ± 2.5e-06 | 3.77e-05 ± 1.5e-05 |  | 3.68e-05 ± 1.4e-05 | 3.45e-05 ± 9.2e-06 |  |  |
| A53U G66U | 0.00118 ± 0.00016 | 0.000307 ± 7.4e-05 | 2320 ± 590 | 0.000716 ± 0.00012 | 0.000904 ± 0.00012 |  | 6.64e-05 ± 1.7e-05 |
| U56A A64U | 5.11e-05 ± 2e-06 |  | 1250 ± 250 | 3.54e-05 ± 1.6e-05 | 4.52e-05 ± 1e-05 |  |  |
| U56A A64C | 6.42e-05 ± 1e-05 |  |  | 6.08e-05 ± 1.1e-05 | 5.71e-05 ± 9.1e-06 | < 1e-05 |  |
| U56A C67G | 0.00221 ± 0.00081 | 0.000684 ± 0.00015 | 1310 ± 590 | 0.000905 ± 0.00024 | 0.00313 ± 0.00047 | 6.73e-05 ± 6.8e-06 | 0.000246 ± 2.7e-05 |
| U57A G66U | 2.06e-05 ± 1.5e-06 |  |  |  |  | < 1e-05 |  |
| U57A G59A | 1.13e-05 ± 3e-06 | < 1e-05 |  |  |  |  |  |
| U54C G66A | 0.011 ± 0.0023 | 0.00522 ± 0.0011 | 1100 ± 320 | 0.00593 ± 0.0014 | 0.0118 ± 0.0022 | 0.000397 ± 5.3e-05 | 0.00112 ± 0.0004 |
| U56A U57C | 0.00014 ± 3.4e-06 |  | 2030 ± 160 | 7.84e-05 ± 1.5e-05 | 0.000115 ± 1.5e-05 | < 1e-05 |  |

| Variant | kcat (glucosamine-6-phosphate [1]) [s⁻¹] | self-cleavage kobs at 640 uM GlcN6P (glucosamine-6-phosphate [2]) [s⁻¹] | KM (glucosamine-6-phosphate [3]) [µM] | self-cleavage kobs at 2500 uM GlcN6P (glucosamine-6-phosphate [4]) [s⁻¹] | self-cleavage kobs at 10000 uM GlcN6P (glucosamine-6-phosphate [5]) [s⁻¹] | self-cleavage kobs at 40 uM GlcN6P (glucosamine-6-phosphate [6]) [s⁻¹] | self-cleavage kobs at 160 uM GlcN6P (glucosamine-6-phosphate [7]) [s⁻¹] |
| --- | --- | --- | --- | --- | --- | --- | --- |
| U56A C71G | 0.00102 ± 0.00013 | 0.000396 ± 4.5e-05 | 1010 ± 210 | 0.000715 ± 9.6e-05 | 0.000952 ± 0.0001 | 5.19e-05 ± 8e-06 | 0.000119 ± 1.8e-05 |
| U56A G60A | 2.59e-05 ± 2.9e-06 |  |  |  | 2.33e-05 ± 1.2e-05 |  |  |
| U54G U56A U69G | 5.38e-05 ± 1.1e-05 | 7.97e-05 ± 1.8e-05 |  | 4.21e-05 ± 1.1e-05 | 6e-05 ± 1.8e-05 | 4.11e-05 ± 1.9e-05 |  |
| U56G A64C | 7.21e-05 ± 4.9e-06 | 2.44e-05 ± 1.1e-05 | 1500 ± 420 | 3.92e-05 ± 1.5e-05 | 6.35e-05 ± 8.6e-06 |  | < 1e-05 |
| U54C U65G | 0.00585 ± 0.0014 | 0.000671 ± 0.00011 | 5410 ± 1800 | 0.00207 ± 0.00032 | 0.00371 ± 0.00042 | 5.43e-05 ± 8.6e-06 | 0.000122 ± 2.6e-05 |
| U55A G59U | 1.92e-05 ± 2.2e-06 |  |  | < 1e-05 |  |  |  |
| U57G C61G C70U | 2.66e-05 ± 9e-06 | 3.58e-05 ± 1.7e-05 |  |  |  |  |  |
| C58G C68U | 4.76e-05 ± 7e-06 | 5.45e-05 ± 1.2e-05 |  | 4.14e-05 ± 1.3e-05 | 4.34e-05 ± 7.8e-06 |  | 7.05e-05 ± 1.9e-05 |
| U54C C58U | 4.86e-05 ± 8.6e-06 |  |  | 4.48e-05 ± 1.5e-05 | 4.34e-05 ± 9.3e-06 |  |  |
| U57G U69C | 1.77e-05 ± 7.2e-06 |  |  |  |  |  |  |
| U54C C71G | 0.00083 ± 0.00027 | 0.000424 ± 0.00013 |  | 0.000351 ± 0.00011 | 0.00091 ± 0.00016 |  | 0.000132 ± 5.7e-05 |
| U55A C68A | 7.99e-05 ± 1.6e-05 | 8.04e-05 ± 2.1e-05 |  | 6.96e-05 ± 1.3e-05 |  |  | 6.93e-05 ± 1.2e-05 |
| U56G U69C C70A | 6.04e-05 ± 1.7e-05 | 8.99e-05 ± 2.7e-05 |  | 6.56e-05 ± 1.5e-05 |  |  | 4.37e-05 ± 1.6e-05 |
| U57A G60C | 2.43e-05 ± 9.7e-06 |  |  |  |  |  |  |
| U54A A64G | 0.0348 ± 0.011 | 0.00654 ± 0.0014 | 2310 ± 830 |  | 0.029 ± 0.0072 | 0.00058 ± 7.4e-05 | 0.00313 ± 0.0007 |
| G60U G66C | < 1e-05 |  |  |  | < 1e-05 |  |  |
| G60U G66U | < 1e-05 | < 1e-05 |  |  | < 1e-05 |  | < 1e-05 |
